T1: recombinant human Nectin-4 protein (human, UniProt Q96NY8 32-349)
T1 construct: Prepared in-house (Jiangsu Mabwell) by transient transfection of CHO cells; also called PVRL-4; PRR-4
T1 sequence: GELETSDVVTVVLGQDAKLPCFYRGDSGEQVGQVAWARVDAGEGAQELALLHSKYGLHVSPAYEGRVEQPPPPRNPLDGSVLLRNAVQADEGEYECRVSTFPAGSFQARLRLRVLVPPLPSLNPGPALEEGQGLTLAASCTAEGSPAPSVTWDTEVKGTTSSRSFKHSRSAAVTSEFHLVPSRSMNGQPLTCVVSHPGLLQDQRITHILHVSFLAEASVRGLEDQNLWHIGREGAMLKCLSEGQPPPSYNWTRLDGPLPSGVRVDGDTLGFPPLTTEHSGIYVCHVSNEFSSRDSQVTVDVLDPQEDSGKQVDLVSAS

T2: Nectin-1 (UniProt Q15223 31-334, limits assumed)
T2 construct: Bought recombinant protein; also called CD111; PVRL-1
T2 sequence (looked up): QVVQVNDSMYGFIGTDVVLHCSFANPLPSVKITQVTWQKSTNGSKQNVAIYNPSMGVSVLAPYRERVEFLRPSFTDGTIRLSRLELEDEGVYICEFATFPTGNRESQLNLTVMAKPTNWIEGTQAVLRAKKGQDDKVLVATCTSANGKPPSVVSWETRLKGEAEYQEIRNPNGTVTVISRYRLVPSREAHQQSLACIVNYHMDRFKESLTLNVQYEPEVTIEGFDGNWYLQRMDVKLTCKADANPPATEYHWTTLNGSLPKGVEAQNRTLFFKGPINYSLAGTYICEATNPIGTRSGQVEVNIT

T3: Nectin-like-5 (UniProt P15151 21-343)
T3 construct: Bought recombinant protein; also called CD155; PVR
T3 sequence (looked up): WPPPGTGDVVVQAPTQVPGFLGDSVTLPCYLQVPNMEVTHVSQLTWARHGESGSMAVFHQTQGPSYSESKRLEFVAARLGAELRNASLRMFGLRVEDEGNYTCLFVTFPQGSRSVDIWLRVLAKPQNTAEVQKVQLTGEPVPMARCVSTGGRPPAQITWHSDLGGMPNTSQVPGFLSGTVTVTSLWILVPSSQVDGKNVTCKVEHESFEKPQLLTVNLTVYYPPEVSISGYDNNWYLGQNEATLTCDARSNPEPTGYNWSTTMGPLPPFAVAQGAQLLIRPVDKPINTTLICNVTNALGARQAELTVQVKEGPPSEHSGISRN

T4: Nectin-like-2 (UniProt Q9BY67 45-374, limits assumed)
T4 construct: Bought recombinant protein; also called CADM1; IgSF4
T4 sequence (looked up): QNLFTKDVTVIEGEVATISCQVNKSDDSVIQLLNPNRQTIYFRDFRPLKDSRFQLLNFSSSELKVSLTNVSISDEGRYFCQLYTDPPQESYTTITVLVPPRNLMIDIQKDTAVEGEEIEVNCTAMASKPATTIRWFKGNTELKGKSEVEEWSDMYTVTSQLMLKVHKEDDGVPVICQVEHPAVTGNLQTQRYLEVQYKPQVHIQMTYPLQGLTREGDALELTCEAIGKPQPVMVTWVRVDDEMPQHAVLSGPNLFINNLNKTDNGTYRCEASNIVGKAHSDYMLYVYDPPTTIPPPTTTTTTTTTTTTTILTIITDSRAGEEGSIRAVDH

T5: Nectin-2 (UniProt Q92692 32-360, limits assumed)
T5 construct: Bought recombinant protein; also called CD112; PVRL-2
T5 sequence (looked up): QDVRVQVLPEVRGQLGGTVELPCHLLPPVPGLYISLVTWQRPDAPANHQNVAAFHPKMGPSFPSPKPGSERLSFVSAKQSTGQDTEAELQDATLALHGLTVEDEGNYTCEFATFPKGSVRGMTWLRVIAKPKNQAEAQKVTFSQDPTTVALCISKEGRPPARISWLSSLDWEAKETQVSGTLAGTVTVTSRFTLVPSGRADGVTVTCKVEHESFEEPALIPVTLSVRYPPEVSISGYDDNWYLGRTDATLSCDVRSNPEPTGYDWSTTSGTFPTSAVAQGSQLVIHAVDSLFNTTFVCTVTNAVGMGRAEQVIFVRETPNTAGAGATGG

T6: Nectin-like-4 (UniProt Q8NFZ8 21-324, limits assumed)
T6 construct: Bought recombinant protein; also called CADM4; IgSF4C
T6 sequence (looked up): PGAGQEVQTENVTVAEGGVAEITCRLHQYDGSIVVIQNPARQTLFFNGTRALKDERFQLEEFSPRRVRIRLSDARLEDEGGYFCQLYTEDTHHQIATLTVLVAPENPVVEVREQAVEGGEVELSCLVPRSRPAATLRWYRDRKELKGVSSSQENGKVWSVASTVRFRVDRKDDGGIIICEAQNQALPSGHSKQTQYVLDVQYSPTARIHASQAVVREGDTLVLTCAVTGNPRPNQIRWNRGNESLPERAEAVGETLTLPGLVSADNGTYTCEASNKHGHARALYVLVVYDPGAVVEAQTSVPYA

B1: Antibody R012 (antibody, V domains shown)
VH: SKSVEESGGRLVTPGTPLTLTCTVSGFSLSTYAMSWVRQAPGKGLEYIGIISGRGTTYYASWLKGRFTISKTSTTVDLKITSPTTEDTATYFCARDAGISDVYTGYFNLWGQGTLVTVSS
VL: QPVLAQLPSASAALGASAKLTCTLSSAHRTYTIAWYQQQQGEAPRYLMMLKSDGSYTKGTGVPDRFSGSSSGADRYLIISSVQAADEADYYCGADDSGGYVFGGGTQLTVTG
notes: Rabbit monoclonal antibody from phage display; also called Nectin-4 rabbit monoclonal antibody R012; rabbit antibody R012
B2: Antibody R036 (antibody, V domains shown)
VH: SQSVEESGGRLVTPGTPLTLTCTVSGFSLSSYAMSWVRQAPGKGLEYIGIIGGRGTTYYAIWAKGRFTISKTSTTVDLKITSPTTEDTATYFCARDAGTTYVGTTYVATGYFNLWGQGTLVTVSS
VL: QPVLTQPPSASAALGASAKLTCTLSSAHKTYTIAWYQQQQGEAPRYLMILKSDGSYTRGTGVPDRFSGSSSGADRYLIISSVQADDEADYYCGADDSGGYVFGGGTQLTVTG
notes: Rabbit monoclonal antibody from phage display; also called Nectin-4 rabbit monoclonal antibody R036; rabbit antibody R036
B3: Antibody MM11 (antibody, mouse IgG1, kappa, V domains shown)
VH: DVQLQESGPGLVKPSQSLSLTCSVTGYSITSNFYWNWIRQFPGNRLEWMGYISYDGSNNYNPSLKNRISISRDTSKNQFFLKLNSVTTEDTATYYCVRADYWGQGTLVTVSA
VL: DTVMTQTPLSLPVSLGDQASISCRSSQSLESSDGHAYLNWYLQKPGQSPQLLIYRVSNRFSGVLHRFSGSGSGTDFTLKISRVEAEDLGVYFCLQFTHVPFTFGSGTKLEIKR
notes: Mouse monoclonal antibody from hybridoma; also called Nectin-4 mouse monoclonal antibody MM11; mouse antibody MM11

Experiments:
[1] = biological target: T1, recombinant human Nectin-4 protein; assay: ELISA, coated antigen, antibody at 10 ng/ml
Experimental: (§1) Coating: Nectin-1, Nectin-2, Nectin-3, Nectin-4, Nectin-like-1, Nectin-like-2, Nectin-like-3, Nectin-like-4, and Nectin-like-5 were diluted to 5 μg/ml in coating buffer (carbonate buffer, pH 9.6) respectively. A 96-well plate was coat with 100 μl per well and incubated overnight at 2-8° C.;
(§2) Sample loading: The plate was taken out, patted dry, and washed twice with 200 μl/well of PBST, then patted dry. The Nectin-4 antibodies prepared in Example 1 (antibody MM11, antibody R012, and antibody R036) were diluted with 1% BSA/PBST to concentrations of 10 μg/ml, 1 μg/ml, 100 ng/ml, and 10 ng/ml, respectively. 1% BSA/PBST solution for dilution was set as a blank control. 100 μl per well was added to the 96-well plate, and incubated at room temperature for 2 hours;
(§3) Reaction termination and plate reading: 100 μl/well of 1 mol/L H3PO4 was added to terminate the reaction and the plated was read. The absorbances of wells in the plate at 450 nm with 650 nm as reference wavelength were read and recorded as OD_{450 nm-650 nm}.

[2] = biological target: T2, Nectin-1; assay: ELISA, coated antigen, antibody at 10 ng/ml
Experimental: as §1, §2, §3

[3] = biological target: T3, Nectin-like-5; assay: ELISA, coated antigen, antibody at 10 ng/ml
Experimental: as §1, §2, §3

[4] = biological target: T1, recombinant human Nectin-4 protein; assay: ELISA, coated antigen, 0 ng/ml antibody (blank control)
Experimental: as §1, §2, §3

[5] = biological target: T2, Nectin-1; assay: as above
Experimental: as §1, §2, §3

[6] = biological target: T4, Nectin-like-2; assay: as above
Experimental: as §1, §2, §3

[7] = biological target: T5, Nectin-2; assay: as above
Experimental: as §1, §2, §3

[8] = biological target: T6, Nectin-like-4; assay: as above
Experimental: as §1, §2, §3

Binder | OD detection value [1] [OD450 nm-650 nm] | OD detection value [2] [OD450 nm-650 nm] | OD detection value [3] [OD450 nm-650 nm] | OD detection value [4] [OD450 nm-650 nm] | OD detection value [5] [OD450 nm-650 nm] | OD detection value [6] [OD450 nm-650 nm] | OD detection value [7] [OD450 nm-650 nm] | OD detection value [8] [OD450 nm-650 nm]
B1 | 0.748 | 0.008 | 0.009 | 0.008 | 0.007 | 0.008 | 0.009 | 0.008
B2 | 0.73 | 0.007 | 0.009 | 0.007 | 0.007 | 0.007 | 0.007 | 0.007
B3 | 0.58 | 0.006 | 0.006 | 0.008 | 0.005 | 0.006 | 0.007 | 0.008

— patent US20260265354A1 (JIANGSU MABWELL HEALTH PHARMACEUTICAL R AND D, published 2026)
